Source: the supplement of paper PMC12764529
± gives the half width of the 95% confidence interval.

Legend:
[1] = folding stability dG unfold (combined trypsin and chymotrypsin); higher = more stable
Outline: (§1)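 Unfolding free energy was derived, per protease or combined, against a sequence-predicted unfolded-state K50 and a shared folded-state K50, starting from K50 inferred by Bayesian fitting of sequencing counts. Digestion with trypsin and chymotrypsin was carried out on designed mini-proteins under 80 residues without cysteine in a PA-tagged cDNA display construct. Only designs with AlphaFold2 dimer inter-PAE above 15 were kept.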

[2] = folding stability dG unfold from chymotrypsin proteolysis; higher = more stable
Outline: as §1

[3] = folding stability dG unfold from trypsin proteolysis; higher = more stable
Outline: as §1

| Sequence | folding stability dG unfold [1] | folding stability dG unfold [2] | folding stability dG unfold [3] |
| --- | --- | --- | --- |
| SSITVVETREERVTLPDGREVTRRETRVVELSEEELRRLLRERLREALREAGIEEVTEEDLDSPEVLAALSA [r9_263_TrROS_Hall] | 1.86 ± 0.12 kcal/mol | 2.2 ± 0.032 kcal/mol | 1.2 ± 0.054 kcal/mol |
| SSLENLEPVSYDVTVEEGPTSPSGVTYTRITITEPGGSTATVTVTPESLTLDYSVRDKARVEALVRELLESA [r9_662_JUSTAS] | 1.04 ± 0.064 kcal/mol | 0.989 ± 0.11 kcal/mol | 0.957 ± 0.019 kcal/mol |
| SSLTVRLELEVTFEDGLRVRVEVEAELREVDGKLELRVRVRVEVRPLPPPPPPPPPPRLSDEQLEELRKRSA [r9_965_TrROS_Hall] | 1.9 ± 0.19 kcal/mol | 2.34 ± 0.092 kcal/mol | 0.786 ± 0.19 kcal/mol |
| SSMPTTVTLTNPADSTTTPLPVPSNISVETTTLPDGSTAGTVTVTDPSTGKTTTITFSGPNTLTSTSATSSA [r9_467_JUSTAS] | 0.804 ± 0.13 kcal/mol | 0.398 ± 0.26 kcal/mol | 1.05 ± 0.03 kcal/mol |
| SSMYLLTVEITRPDGSVSSKTVPVNFAPGTTIDELLKALNLPKSSLATVTVTATEYSGGPPVTSTHTITLSA [r9_755_JUSTAS] | 2.34 ± 0.06 kcal/mol | 2.44 ± 0.052 kcal/mol | 2.02 ± 0.065 kcal/mol |
| SSPGKITTYEVTLTLPGPRPMTSTVDPSGVMTATVPDGTKITATIVPGPGTLTITTTFPDGTTSTSTISASA [r9_99_JUSTAS] | 1.26 ± 0.074 kcal/mol | 1.21 ± 0.058 kcal/mol | 1.26 ± 0.061 kcal/mol |
| SSPKIVVEVTLDGNPRTITIPSSLSLEEIKEKILEALKEEGIEDVPIEEIKIKKEEELPTEEGESKIVVSSA [r9_1053_JUSTAS] | 1.76 ± 0.15 kcal/mol | 2.08 ± 0.087 kcal/mol | 0.999 ± 0.066 kcal/mol |
| SSPLDPAGRFTIEVVFTTSADGTLTATFTITAPGGVPLKTLTRSFTNPSPGKAAAVEEAEALKAEIEAAASA [r9_739_JUSTAS] | 1.97 ± 0.064 kcal/mol | 2.35 ± 0.047 kcal/mol | 1.3 ± 0.025 kcal/mol |
| SSPSSVPDAVVQALKEAHPDVVSIEVTPLPPESTRISVTLKSGSGSSTVSFSIPSPEGVTRTYTVSVSNPSA [r9_678_JUSTAS] | 1.04 ± 0.064 kcal/mol | 1.18 ± 0.091 kcal/mol | 0.839 ± 0.063 kcal/mol |
| SSPVSFSTSTTSPPSPSSLPDGSTLSTTTTTYTAPDGSRYTVTSTTLTPPTGPATPVSTTTTSTGSSGPSSA [r9_394_JUSTAS] | 0.872 ± 0.046 kcal/mol | 1.08 ± 0.043 kcal/mol | 0.514 ± 0.018 kcal/mol |
| SSSIKTSTTTSTEPATGTTTTTTTVTYPDGTTTTTTTTTLPDGTTTVTTTTTPPDGSVTSTTTTLTSLTTTS [r1_461_JUSTAS] | 0.904 ± 0.17 kcal/mol | 0.655 ± 0.043 kcal/mol | 1.24 ± 0.1 kcal/mol |
| SSSMPVTVEIEAKKLSNGKYLAKITVKDANGNELEEYEKEMDESEVEKLKEELKKKYPNMKVTMTYKDELSA [r9_374_JUSTAS] | 4.17 ± 0.45 kcal/mol | 4.17 ± 0.14 kcal/mol | 3.3 ± 0.34 kcal/mol |
| SSSPLPSPVTLPNGTVVYYFPDTGLVLTLDPKTGTGTVTYVTTDPQGNPTFFPSTVTFDPPTGKVVEVVASA [r9_122_JUSTAS] | 2.39 ± 0.079 kcal/mol | 2.77 ± 0.033 kcal/mol | 0.904 ± 0.058 kcal/mol |
| SSSVTRTYTVTLPGSTVSIEITEKPNPEGSTTVTITVTTTKPGGGSTTTTVTKNITGLTLEDILKEAISSSA [r9_217_JUSTAS] | 3.57 ± 0.057 kcal/mol | 3.68 ± 0.05 kcal/mol | 3.38 ± 0.092 kcal/mol |
